# From the supplement of paper PMC12042874
# ± gives the uncertainty stated by the source.
# Test: amyloid nucleation score (Sup35N fusion, yeast selection) (log enrichment); library NNK1; higher = more nucleation; inactive = no reads after selection
# Method in brief: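 On medium lacking adenine and uracil, psi-negative yeast expressing peptides of 20 random codons fused to Sup35N were grown 7 days at 30°C after a 24-hour induction with 100 μM copper sulfate. Illumina sequencing of input and output plasmid inserts gave the reads, and sequences under 100 input reads were excluded. The nucleation score is the DiMSum log enrichment of output over input reads, centred on the mode score of non-aggregating sequences.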
row,Substance,amyloid nucleation score
1,HLYLFSGFRAVSESEVRGAK,2.6 ± 0.22
2,GPWAGVRVRSTCLVRYSWYG,0.242 ± 0.44
3,STNLMKMWLFHLRDTAR,0.583 ± 0.37
4,MREGFTLFVDKDCNAGTYTW,inactive
5,CIVNMNRGWISIDLLRD,5.78 ± 0.073
6,SSVFCFIGKASEAVILAIYC,-0.052 ± 0.79
7,VGIWLGTGTWGCKGL,0.485 ± 0.66
8,GNWASIWPLGFELLSYICQE,-0.866 ± 0.49
9,HLINVQ,0.632 ± 0.53
10,PIFKMDCGDMVCT,0.121 ± 0.22
11,TWNKCKVADSLFMTRIIMVL,0.305 ± 0.41
12,YCANQRNSVPMGRMEPHSSS,-0.2 ± 0.49
13,LGYRPWFWTTAFSSLADLAR,-0.907 ± 1.3
14,LETINSSGRHF,2.74 ± 0.091
15,CSYSLSRFVLIHDRIVNMVT,1.35 ± 0.4
16,MRGTSEFYLVRGRYTCISRG,-0.292 ± 0.45
17,ELGTVFGLTYYTMTDYVPMT,0.483 ± 0.22
18,YYIEVLILCWACQNALSRAS,0.5 ± 0.9
19,EINCHSSMGFMRWPPRSGNG,-0.962 ± 1
20,MSWNYCNDM,-0.045 ± 0.22
21,TSTVG,inactive
22,ASSGSVGVLNLATHTTVKWQ,4.04 ± 0.14
23,CDYLNGLKGYSP,-0.19 ± 0.35
24,GFTYTC,-0.915 ± 1.1
25,GGTSRLQDVDAALTGTWVSP,0.042 ± 0.37

row,Substance,amyloid nucleation score
1,SKHRSIYFIPLSHVESVVVW,-0.192 ± 1.1
2,SWAWIACIGAMNPEN,-0.478 ± 1.4
3,PRCSMRLLGYTPIYDGKS,-0.781 ± 1.1
4,VFYVCFNAKLPLLGYFDLKV,inactive
5,AFGMSLGG,0.225 ± 0.65
6,TRALSFN,-0.873 ± 1.6
7,CPHALYKSLIIPGSMFYKVR,-1.04 ± 1.7
8,LFFECVTLHLYLVKSS,-1.1 ± 2.4
9,SCDFILLLAVT,0.352 ± 0.36
10,GSFVGRR,0.241 ± 0.46
11,IMNMIA,0.455 ± 0.48
12,LALHEWLWLFDTFH,-0.097 ± 0.62
13,MYVNSSNYDLWMNFKIVFWA,1.18 ± 0.25
14,SLAGFCMQPRTLLV,0.86 ± 0.83
15,VETIRQINVHVSGVDIHFWD,6.872 ± 0.045
16,ALLGFRSCMQASFFFFRWFI,-0.801 ± 0.89
17,CPGLFVGLCPMAHMVACCHR,inactive
18,IRMVL,0.697 ± 0.44
19,NGWILNLVWTVKNTSMTLIW,0.678 ± 0.51
20,TTFFYYSEGKIR,-0.657 ± 0.51
21,HIENNSLKSDIVGRRGVRLS,-0.549 ± 0.64
22,YDRVYLNQFVRTESVHFFCL,6.341 ± 0.056
23,LGFRVNWIDHPRSNRSTAGL,0.604 ± 0.97
24,WYCPATH,0.836 ± 0.97
25,WSVISIEASLCRQVPLYANT,0.26 ± 0.65

row,Substance,amyloid nucleation score
1,ILICQCLMLACGRVFSFYLV,-0.328 ± 0.57
2,RQNVQWR,1.86 ± 0.62
3,FFGCCSRGARIDHVSRNHLL,0.185 ± 0.52
4,LMGGNDNWGTTNPEDGILIW,-0.347 ± 0.41
5,TLRYKNT,0.371 ± 0.76
6,RVSFQIVTVGWC,-1.13 ± 1.2
7,FATIVFVVKNENFMNADTLR,5.68 ± 0.08
8,KNDYSYWL,-0.275 ± 0.65
9,NLGAMWLNVVPVYLKWVAL,-0.095 ± 0.32
10,TCVIFLVLCQALSFPVLALC,0.095 ± 0.79
11,RLRTNVLSNRVGDPIMTSHV,0.158 ± 0.54
12,VIVFCCSEDNRRGQLKV,-1.49 ± 0.84
13,EFKLIDLFLLYWLSREHNQF,0.391 ± 0.42
14,FYFLKDY,-0.763 ± 0.3
15,GLSGSLSSVIYSSEVRSR,0.036 ± 0.29
16,IGQGFNCIR,-0.083 ± 1.4
17,VVRLG,0.124 ± 1
18,LFLSSCLNSGLGGTL,0.105 ± 0.29
19,SRNLGMYHMYFKFPWCMNPM,-0.15 ± 0.46
20,DPMHYL,4.55 ± 0.098
21,TFNVVNPMVTYN,-0.776 ± 0.3
22,LEVVHRVLCTFCLFDSLMVY,1.78 ± 0.26
23,VVMLSVSPLTIHRGSFRDCS,2.97 ± 0.1
24,TDNMWCSNVIFLECTN,4.07 ± 0.12
25,WPVYEDKACCHVDAHKGEAT,0.838 ± 0.48

row,Substance,amyloid nucleation score
1,YLMLCTEIEPKRAGGGMSER,inactive
2,ISCRFAMVLGLKSWILTYV,inactive
3,GHTRR,-0.062 ± 0.41
4,RCYCDNFVLGLVEL,0.267 ± 0.29
5,SLTYCHSIIKDLETLIFRSK,0.283 ± 0.61
6,ARLENVTHFRFLQTNLGYIE,0.082 ± 0.67
7,CLTLPYYSIYAVGESRMFEW,0.003 ± 0.27
8,FIHALLSNYVSIIFSNDRIC,2.31 ± 0.59
9,YTWQYAYLCQVMTSFYSGSI,-0.269 ± 0.47
10,EDCIMGNWNLCSKGSSGF,0.374 ± 0.3
11,DFLNWWCRCVTFNSGRSGFV,0.392 ± 0.6
12,YYFILYGSVNQHRTSIFRAR,5.08 ± 0.059
13,EGACVKSRVWDRINVTGRSR,1.25 ± 0.68
14,SFLNINPRQFSWIYCPLVVY,2.94 ± 0.23
15,GAFRVVSQHRASDVS,-0.116 ± 0.41
16,VFGSKFGLKLITDFINILLR,inactive
17,RLAYYFKGNANDFLAYLAKY,-0.66 ± 0.76
18,KGSSAMPL,inactive
19,VDCLFLKHHFFLTVSSMVRN,1.43 ± 0.84
20,IMHQYRRGYDRDLNWNRMFR,0.035 ± 0.72
21,WSYLQY,-0.364 ± 0.79
22,CHHSYCMITPLTVSTARNGW,0.749 ± 0.35
23,CIMPMIGKYVGVFSSGSSIS,inactive
24,CAQRPAVRSF,-0.075 ± 0.98
25,RDDLNTTWFLGRSTLGLMLW,0.168 ± 0.6

row,Substance,amyloid nucleation score
1,RYSYFSSASCLRYRAPKGRG,0.098 ± 0.32
2,PNDPGKLSHGVSVVLYFDEL,1.5 ± 0.39
3,LVIFKLTM,3.51 ± 0.066
4,TFLNFWPQFCMEFY,5.98 ± 0.06
5,FDVIGSCVGDQWTAGMDWTL,0.429 ± 0.51
6,GKPVDRLS,0.066 ± 0.28
7,SKTVVTKVKLSIWAGRVLRF,-1.14 ± 1.9
8,FKKSNLPSIVWRCDAWLGSS,0.334 ± 0.3
9,DAVQLMSCCMTISGPTKNRA,0.184 ± 0.56
10,VCKWNSSIFLYNRPSVSAAV,0.123 ± 0.4
11,HVGRHTTTGHAGFCNCGNPN,3.46 ± 0.17
12,LLFKNRISPITTI,0.174 ± 0.47
13,NTVIVPHLIILLDYSKVWAE,3.28 ± 0.069
14,DVGGCHVVTGFERNVKGDLL,1.44 ± 0.78
15,YSIVFGWLRYRLDWMCLISL,0.055 ± 0.26
16,LIRNINHWASYRFFCNCSSW,6.443 ± 0.06
17,MGCWCLASRDLTKT,-0.485 ± 1
18,PVGNPLD,-0.039 ± 0.18
19,RTKLVEHSMFCNGGEKRHTP,0.574 ± 0.56
20,STLDLLCYFRREADQTINKR,0.336 ± 0.36
21,SNMRRASFNHGGRWNSGRGN,-1.1 ± 2.4
